These results are taken from the supplement of paper PMC12042874.

± gives the uncertainty stated by the source.

The nature of this data set: amyloid nucleation score (Sup35N fusion, yeast selection) (log enrichment); library NNK3; higher = more nucleation; inactive = no reads after selection. In a few lines: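 Yeast lacking psi expressed peptides of 20 random codons fused to Sup35N, received 100 μM copper sulfate for 24 hours, and were then grown for 7 days at 30°C on medium lacking adenine and uracil. Illumina sequencing of input and output plasmid inserts provided the reads. Nucleation scores are DiMSum log enrichments of output over input, centred on the mode of non-aggregating sequences. Any sequence with under 100 input reads was excluded.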
Regarding LVGFRTGTALLDQMAL, the amyloid nucleation score entry was “inactive”. Consider FRVNKYNISFLVRQSGIWLA, for which the amyloid nucleation score result is “inactive”. Regarding TIEIGSLYTITM, the amyloid nucleation score was -0.251 ± 0.45. For the substance TNVSPLTPNT, the amyloid nucleation score entry was “inactive”. On to HRMRLSCCTAFDTLVMIPIS, for which the amyloid nucleation score came out at 0.482 ± 0.17. As for LQRIGIYMTTFCENRCPDAE, the entry is “inactive”. For SLPRV, the amyloid nucleation score result is “inactive”.

Turning to ICNFHSSRPLNIS, the amyloid nucleation score result was “inactive”. With DYCLSLLWINMPHVGNIVNL the entry was “inactive”; with VQAAKLVYHYQGSCLNRLRE, “inactive”. As to VRSIRWKVT, the amyloid nucleation score result is “inactive”.

For the substance LHYKCNDVHQNGMLELCYLN, the amyloid nucleation score entry was “inactive”. TNLLRTGNASSWMFKRGVEC: the amyloid nucleation score result is “inactive”. For GDMQMW, the amyloid nucleation score result was “inactive”. In the case of IHSPKLLAGAM, the amyloid nucleation score result was “inactive”.

With CQPNWGWCSARIVLHILVLR, the amyloid nucleation score entry was “inactive”. For CYSGCEWSTYMLMGVLKVVS, the amyloid nucleation score result was “inactive”. With CSFIGYHGFVCLSVDIVLGC the figure was 1.51 ± 0.12; with PRGLVALGFGAFSKGPHGRS, “inactive”; with CFNNRARP, “inactive”.

Regarding YGSKWTLKVFWIMMCFDELP, the amyloid nucleation score entry was “inactive”. As for EVLSMYRCSNVFLWFTKFIA, the entry is “inactive”; as for RMNQIRLPGRCTY, “inactive”; as for PYSISMISTRYCLGRQHD, “inactive”. As for LSYYVFRYTNTHWSPCFYIE, the entry is “inactive”; as for NVVIFML, 2.47 ± 0.076; as for DTPMESGTGATHLVRIVHSA, “inactive”. With IYLECIYNCFYVYKIMLHRV the entry was “inactive”; with FFLCDRKNRRST, “inactive”.

Turning to FNRGLLNHFFGH, the amyloid nucleation score result was “inactive”. The substance CILYYLNSSMVIGTCLFILN yielded an amyloid nucleation score of 1.36 ± 0.085. With GNQAYTVTGGSETVCSDNGC the entry was “inactive”; with FITVNRQNGK, “inactive”; with SISCCGIILIKNQASMPWAS, 2.96 ± 0.079. As for LHEENA, the entry is “inactive”. FSTWEELLTSHLKCFTAGWG gave an amyloid nucleation score of -0.458 ± 1.4. As for YLVGCWNYESKN, the figure is 0.234 ± 0.25. Substance NVNLVSIVVVIMDEKDKVKE gave an amyloid nucleation score of 2.84 ± 0.07. As for RYKVD, the entry is “inactive”; as for AGKKLSRITTWSNTLLDPKS, “inactive”; as for WVNTGNQRLYRQTCCGTLVR, “inactive”. With FRHCGCHTFLCIIVTDRHHY the figure was 1.85 ± 0.061.

NTSYLDASSNGNQRCIHSHK: the amyloid nucleation score entry is “inactive”.

In turn, RKMDLVDKSMSTIGYLAHHG came in with an amyloid nucleation score of -0.63 ± 0.82. For FVFMTDGGVLNVLAWCISEA, the amyloid nucleation score result is “inactive”. As for KINKREWRRFTVYSVFSHVS, the figure is 0.435 ± 0.35; as for TGSLWRNHCLVVPQVRYGRK, -0.017 ± 0.5; as for SNLFTGYGELFVPGS, “inactive”. Substance NDCRCTIFAAYIKILYKFLG yielded an amyloid nucleation score of 1.13 ± 0.097. With FTYWLFSLDR the entry was “inactive”; with VGQLFTSSSSVVSSGCMIVD, “inactive”.

Turning to TAVLH, the amyloid nucleation score result is “inactive”. On to FLGTVLLGWFIAMMSRCLGR, for which the amyloid nucleation score worked out at 0.048 ± 0.45. As for FYPRMYTISQMLDAGQDDAA, the entry is “inactive”; as for ASCSGIC, -0.956 ± 2.4; as for HYMFSVVNVSGDCFFLSESN, 3.24 ± 0.071. MSQCFVCRFAFLIN: the amyloid nucleation score is 1.57 ± 0.067.

KNSLDALFYVTALFCTLSGD: the amyloid nucleation score was -0.122 ± 0.38.

With FSSFG, the amyloid nucleation score result is “inactive”. As for PIQGAMTRNYRFRTGRGFCL, the figure is 0.882 ± 0.2; as for TVFSCYSWELEMMLWDGSYM, “inactive”; as for LRDTGWLIGLMCCSIQIGSG, 2.13 ± 0.069. As for SSCTLVKAGLVNFLRARYSG, the entry is “inactive”. With WCESDVMDFGSYFADFLS the entry was “inactive”; with LNYVCCCIQSPPEFNIS, 3.36 ± 0.07; with VISYYIATGGFIDVFYCCKF, 2.15 ± 0.085. On to NRRFITYFSFRSPEVYKMQY, for which the amyloid nucleation score entry was “inactive”. Turning to LFMINLDPASMVHMTPCFTN, the amyloid nucleation score entry was “inactive”. As for SRYHLDFRYYSINKSLMSGV, the amyloid nucleation score result was “inactive”. Take SVNLFVLMYLFII: the amyloid nucleation score was 1.9 ± 0.061.

For the substance VGKWGFQEGST, the amyloid nucleation score entry was “inactive”.

Turning to QCMIYYTDKLLKYSSCTRTM, the amyloid nucleation score entry was “inactive”. Consider PVNGAVYTKGLTSWLRFIVV, for which the amyloid nucleation score is -0.178 ± 0.82.

Take YMSRKPV: the amyloid nucleation score result is “inactive”. Regarding HDCSYLGILKDMDS, the amyloid nucleation score entry is “inactive”. LCWTVVIHVRTAVRIWLTSR: the amyloid nucleation score result was “inactive”. For HVFFMKTEEPCTPEY, the amyloid nucleation score entry was “inactive”. As for WCMFMMSNWRVRPADLFCIS, the amyloid nucleation score result was “inactive”.

Turning to YVMNHTLGAILNAFRGI, the amyloid nucleation score is 1.04 ± 0.17. As for MYLDIESDMSNTGAE, the entry is “inactive”; as for CNYNGLESILR, “inactive”; as for NNTLV, “inactive”.

On to CNTPR, for which the amyloid nucleation score result is “inactive”. As for YDGLSSAMGEHIRNNNCLLV, the entry is “inactive”; as for VACTVSEAYKCTLIWTHLVR, “inactive”; as for CAVFRVSRISINTDAIFITC, 1.74 ± 0.054.

Take ESSHRTSIFRDWCNSLLI: the amyloid nucleation score result was “inactive”. With TLSHIGGIEGFINGCLSVGP the entry was “inactive”; with FLDGFVQPISESINLLMFCT, “inactive”; with RSVVEWGS, “inactive”. As for YALIQIPKYRLGCRGWTMRG, the figure is 0.172 ± 0.27; as for DTWMST, “inactive”. Take TGHSQSLVVLTCWCVLFHAR: the amyloid nucleation score entry is “inactive”.

As for LLCLLQYLWPRRDSYYACLR, the amyloid nucleation score turned out to be 0.782 ± 0.18. As for YDDVFFYSWVTFLRQLFDPL, the amyloid nucleation score entry was “inactive”. For YQIDQSLCNWCYLGGSWFIA, the amyloid nucleation score was 2.39 ± 0.072.

Consider YFFSVLG, for which the amyloid nucleation score entry is “inactive”. Turning to LFCLLLHNIGKFRYMFY, the amyloid nucleation score result is “inactive”. With ISQGFGCEFVFWFEEGKFFH the entry was “inactive”; with LMCDWGVY, -0.175 ± 0.85; with MCAHVNVMRNSFYRRNAPNY, 0.603 ± 0.16. With SGAQARDV the entry was “inactive”; with FISHSCYGWILRGCQTVGFW, -0.552 ± 0.98.

Take MFQFVFSVQMSGSAFRMFMK: the amyloid nucleation score result was “inactive”. In turn, ERRNRMFSWCWCSSSLLDAE had an amyloid nucleation score of -0.08 ± 1. Regarding NNTNAQKLLINV, the amyloid nucleation score entry is “inactive”. Consider KSSMKLLSPP, for which the amyloid nucleation score entry was “inactive”. With YWLRVIKRHRDRHR the entry was “inactive”; with NSKYLLD, “inactive”. With YVVPRFTVMGEQKKCQWRSL the entry was “inactive”. With YSVFGVNKQMAFAVCDWHHC the figure was 0.477 ± 0.17. ECTLGCTSDWGNLKARHGVR: the amyloid nucleation score entry was “inactive”. Take VSACIWRKLPVFVYSVSAGS: the amyloid nucleation score entry is “inactive”. With RCFRTLIRENMKLANTSDMT, the amyloid nucleation score entry was “inactive”. With HPRTLSRLNINFRANRYGWS the figure was -0.859 ± 1.7; with TSDQSESISLFRYI, “inactive”. With INSWIPWWLERKWSWHLASI the entry was “inactive”; with RFKVT, “inactive”; with PQCESLMYCGD, “inactive”. As for HFMLNIWKVDNNMLWVLICP, the entry is “inactive”; as for QCKVCIMLYKGDLRANGWYG, 1.86 ± 0.091. In the case of LIEDVYLWLCYHRVGYLSAS, the amyloid nucleation score entry was “inactive”. Take GPNLLWDRGGPVNSCASKEA: the amyloid nucleation score result is “inactive”. For the substance STLQRDIICKCIHAKVTVWV, the amyloid nucleation score entry was “inactive”. For the substance CESDEH, the amyloid nucleation score entry is “inactive”.

VATYVPCPCYSMFCAGIC displayed an amyloid nucleation score of -0.355 ± 0.7.

RCVSFTLKIGLIFKQTPSCR: the amyloid nucleation score result is “inactive”. As for GIRCSLVY, the amyloid nucleation score result is “inactive”.

For YINLFGKWA, the amyloid nucleation score was determined as 1.53 ± 0.1. As for VDHRGALVEKFMNNSIWTSF, the figure is 0.122 ± 0.98; as for REVVRDWERCY, “inactive”; as for FFIFRDVSTVDSLGPLYRLM, 1.14 ± 0.2. With PNARKMCMLFVTECFKVVPK the entry was “inactive”.
